According to patent US20140037667A1:

Target: env polypeptide of the LR1-C1 isolate (HIV-1 (variant of clade B primary isolate AC10))
Assay: virion capture assay, titration of virions on 4E10-coated plates, p24 ELISA

## 4E10 antibody
  fold increase in affinity against the AC10 wild-type variant: 4 fold
